Each sequence was assayed on Escherichia coli TOP10 (assay: shrunken log2 fold change of peptide-encoding DNA abundance (4.5 h post-induction vs induction); higher = less antimicrobial activity (less host growth inhibition)). Settings: time post-induction: 4.5 h; library: site-saturation at positions 5, 18, 19, 20.
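Note: peptides expressed intracellularly from a pBAD plasmid library in pooled LB shake-flask culture, induced with 0.3% L-arabinose, DNA abundance read by NGS, three biological replicates, DESeq2 with apeglm shrinkage.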

| Sequence | shrunken log2 fold change |
| --- | --- |
| RRIRLRPPRLPRPRPRPVEAPRP | 0.224 |
| RRIRARPPRLPRPRPRPQFDPRP | 0.545 |
| RRIRDRPPRLPRPRPRPVNKPRP | -0.0502 |
| RRIRIRPPRLPRPRPRPWPFPRP | -0.259 |
| RRIRARPPRLPRPRPRPETLPRP | 1.15 |
| RRIRHRPPRLPRPRPRPMYLPRP | -0.412 |
| RRIRIRPPRLPRPRPRPKVWPRP | -0.0123 |
| RRIRPRPPRLPRPRPRPQSHPRP | -0.291 |
| RRIRRRPPRLPRPRPRPKCPPRP | 0.278 |
| RRIRCRPPRLPRPRPRPPIDPRP | -0.071 |
| RRIRYRPPRLPRPRPRPMPWPRP | -0.0575 |
| RRIRHRPPRLPRPRPRPQHPPRP | -0.396 |
| RRIRCRPPRLPRPRPRPRSGPRP | 0.694 |
| RRIRSRPPRLPRPRPRPICDPRP | 0.228 |
| RRIRPRPPRLPRPRPRPGSVPRP | 0.0512 |
| RRIRTRPPRLPRPRPRPEITPRP | -0.0572 |
| RRIRVRPPRLPRPRPRPYSCPRP | -0.00112 |
| RRIRARPPRLPRPRPRPDTYPRP | -0.11 |
| RRIRDRPPRLPRPRPRPMSLPRP | -0.558 |
| RRIRSRPPRLPRPRPRPDSAPRP | 0.0412 |
| RRIRYRPPRLPRPRPRPPDEPRP | 0.0398 |
| RRIRLRPPRLPRPRPRPCERPRP | -0.0471 |
| RRIRRRPPRLPRPRPRPVSIPRP | -0.0599 |
| RRIRDRPPRLPRPRPRPQYHPRP | -0.47 |
| RRIRMRPPRLPRPRPRPCTMPRP | -0.218 |

| Sequence | shrunken log2 fold change |
| --- | --- |
| RRIRHRPPRLPRPRPRPYNIPRP | -0.244 |
| RRIRFRPPRLPRPRPRPHVFPRP | -0.136 |
| RRIRRRPPRLPRPRPRPKHCPRP | 0.294 |
| RRIRNRPPRLPRPRPRPGTPPRP | 0.608 |
| RRIRGRPPRLPRPRPRPIFHPRP | 0.249 |
| RRIRSRPPRLPRPRPRPLKTPRP | -0.0127 |
| RRIRLRPPRLPRPRPRPGWRPRP | 0.317 |
| RRIRTRPPRLPRPRPRPCRSPRP | -0.0198 |
| RRIRNRPPRLPRPRPRPPEHPRP | 0.266 |
| RRIRQRPPRLPRPRPRPFEIPRP | 0.0112 |
| RRIRNRPPRLPRPRPRPVLWPRP | 0.00135 |
| RRIRDRPPRLPRPRPRPEGLPRP | 0.0425 |
| RRIRLRPPRLPRPRPRPRMIPRP | 0.119 |
| RRIRHRPPRLPRPRPRPHMWPRP | 0.104 |
| RRIRHRPPRLPRPRPRPDFSPRP | -0.0123 |
| RRIRHRPPRLPRPRPRPYTKPRP | 0.0561 |
| RRIRLRPPRLPRPRPRPIGDPRP | -0.118 |
| RRIRQRPPRLPRPRPRPLAGPRP | 0.166 |
| RRIRFRPPRLPRPRPRPENMPRP | -0.158 |
| RRIRLRPPRLPRPRPRPRHVPRP | -0.127 |
| RRIRHRPPRLPRPRPRPITHPRP | -0.23 |
| RRIRMRPPRLPRPRPRPQAYPRP | -0.0933 |
| RRIRHRPPRLPRPRPRPAIPPRP | -0.112 |
| RRIRPRPPRLPRPRPRPEHLPRP | -0.109 |
| RRIRLRPPRLPRPRPRPWDFPRP | -0.00136 |

| Sequence | shrunken log2 fold change |
| --- | --- |
| RRIRARPPRLPRPRPRPMHIPRP | -0.132 |
| RRIRHRPPRLPRPRPRPLPWPRP | 0.108 |
| RRIRSRPPRLPRPRPRPGTRPRP | -0.0748 |
| RRIRKRPPRLPRPRPRPQWLPRP | 0.0628 |
| RRIRGRPPRLPRPRPRPMFFPRP | 0.336 |
| RRIRIRPPRLPRPRPRPIREPRP | -0.0273 |
| RRIRIRPPRLPRPRPRPVMVPRP | -0.066 |
| RRIRIRPPRLPRPRPRPRSFPRP | -0.0641 |
| RRIRNRPPRLPRPRPRPSHLPRP | -0.438 |
| RRIRLRPPRLPRPRPRPTVNPRP | -0.119 |
| RRIRMRPPRLPRPRPRPTGRPRP | 1.24 |
| RRIRQRPPRLPRPRPRPNAAPRP | 0.0416 |
| RRIRCRPPRLPRPRPRPQVDPRP | 0.0243 |
| RRIRYRPPRLPRPRPRPADFPRP | -0.0123 |
| RRIRVRPPRLPRPRPRPKQEPRP | 0.239 |
| RRIRPRPPRLPRPRPRPPFWPRP | 0.767 |
| RRIRDRPPRLPRPRPRPSRIPRP | -0.307 |
| RRIRNRPPRLPRPRPRPDCLPRP | 0.0127 |
| RRIRCRPPRLPRPRPRPARSPRP | 0.261 |
| RRIRLRPPRLPRPRPRPPRVPRP | 0.536 |
| RRIRSRPPRLPRPRPRPMCNPRP | -0.287 |
| RRIRVRPPRLPRPRPRPIINPRP | -0.644 |
| RRIRHRPPRLPRPRPRPTMPPRP | -0.00312 |
| RRIRYRPPRLPRPRPRPANYPRP | -0.0328 |
| RRIRYRPPRLPRPRPRPLEGPRP | 0.0645 |
